Two substances from article PMC10876215, “Nucleosome conformation dictates the histone code” (eLife, 2024) can be followed below.

Like-named read-outs stand apart in the source and are kept apart here.

Test [1] addresses T1, BPTF PHD-BD (GST-tagged) (Homo sapiens, UniProt Q12830).
T1 construct: Q12830 (2865-3036); made in house; host or cells: E. coli BL21 (DE3)
In words: dCypher binding assay, histone peptides, GST-PHD-BD Query. The source says: (§1) Human BPTF (Uniprot Q12830) PHD finger-bromodomain (PHD-BD) and PHD finger were cloned into pGEX6p with an N-terminal Glutathione S-Transferase (GST) tag and a PreScission protease cleavage site (Supplementary file 2A and Figure 1—figure supplement 2). BPTF BD with an N-terminal 6xHistidine (6His) tag and Tobacco Etch Virus (TEV) protease cleavage site was from Addgene (plasmid 39111). The Q5 site-directed mutagenesis kit (New England Biolabs [NEB]) was used for domain addition/removal or single amino acid substitutions. All constructs were expressed in E. coli BL21 (DE3) (Thermo Fisher Scientific or NEB). Cells were grown to OD600 ~1.0 and induced with 0.8 mM IPTG at 18 °C for ~16 hr in LB (or M9 minimal media for NMR). M9 media was supplemented with vitamin (Centrum Adult), 1 g/L ^15NH4Cl, and 5 g/L D-glucose. For constructs containing the BPTF PHD finger all growth media and buffers were supplemented with 100 μM ZnCl2. For purification of BPTF recombinants cells were lysed by sonication, and lysates were incubated with either glutathione agarose (Thermo Fisher Scientific) or Ni-NTA resin (Thermo Fisher Scientific) to respectively enrich for GST- and 6His-tagged proteins. Fusion proteins were eluted with reduced L-glutathione or imidazole as appropriate. […] Protein concentrations were determined by UV-Vis spectroscopy. […]

Test [2] has as its target T1, BPTF PHD-BD (GST-tagged). Kind of test: dCypher binding assay, NCPs, GST-PHD-BD Query.
From the text: as §1

The target of a further test is T2, BPTF PHD (6His-tagged) (Homo sapiens, UniProt Q12830).
T2 construct: Q12830 (2865-2924); made in house; host or cells: E. coli BL21 (DE3)
In words: dCypher binding assay, histone peptides, 6His-PHD Query. The settings on record: Table (Ext. Figure 2A), 4PL fit, H3 1-20 top constrained (426889).
From the text: as §1

The target in test [3] is T3, BPTF BD (6His-tagged) (Homo sapiens, UniProt Q12830).
T3 construct: Q12830 (2914-3037); host or cells: E. coli BL21 (DE3)
Kind of test: dCypher binding assay, histone peptides, 6His-BD Query. The conditions noted are these: Table (Ext. Figure 2A), 4PL fit, top constrained (496106).
From the text: as §1

The target of test [4] is T3, BPTF BD (6His-tagged). Kind of test: dCypher binding assay, NCPs, 6His-BD Query. The source says:
Human BPTF (Uniprot Q12830) PHD finger-bromodomain (PHD-BD) and PHD finger were cloned into pGEX6p with an N-terminal Glutathione S-Transferase (GST) tag and a PreScission protease cleavage site (Supplementary file 2A and Figure 1—figure supplement 2). BPTF BD with an N-terminal 6xHistidine (6His) tag and Tobacco Etch Virus (TEV) protease cleavage site was from Addgene (plasmid 39111). The Q5 site-directed mutagenesis kit (New England Biolabs [NEB]) was used for domain addition/removal or single amino acid substitutions. All constructs were expressed in E. coli BL21 (DE3) (Thermo Fisher Scientific or NEB). […] Protein concentrations were determined by UV-Vis spectroscopy.
The dCypher approach (dCypher for brevity) was developed on the chemiluminescent bead-based, no-wash Alpha platform (PerkinElmer) for the high-throughput profiling of CAP binding to PTM-defined histone peptides and semi-synthetic nucleosomes (homotypic NCPs unless stated otherwise) ([Marunde et al., 2022a]; [Morgan et al., 2021]; [Weinberg et al., 2019]; [Dilworth et al., 2022]; [Weinberg et al., 2021]; [Jain et al., 2020]; [Lloyd et al., 2020]). […] The plate was incubated at room temperature in subdued lighting for 60 min and the Alpha signal was measured on a PerkinElmer 2104 EnVision (680 nm laser excitation, 570 nm emission filter ± 50 nm bandwidth). […]

Test [5] deals with GST-PHD^W2891A-BD (GST-PHD^mut-BD). Type of test: binding, Human. The conditions noted are these: for binding: NCPs. An excerpt:
Human BPTF (Uniprot Q12830) PHD finger-bromodomain (PHD-BD) and PHD finger were cloned into pGEX6p with an N-terminal Glutathione S-Transferase (GST) tag and a PreScission protease cleavage site (Supplementary file 2A and Figure 1—figure supplement 2). BPTF BD with an N-terminal 6xHistidine (6His) tag and Tobacco Etch Virus (TEV) protease cleavage site was from Addgene (plasmid 39111). The Q5 site-directed mutagenesis kit (New England Biolabs [NEB]) was used for domain addition/removal or single amino acid substitutions. All constructs were expressed in E. coli BL21 (DE3) (Thermo Fisher Scientific or NEB). Cells were grown to OD600 ~1.0 and induced with 0.8 mM IPTG at 18 °C for ~16 hr in LB (or M9 minimal media for NMR). M9 media was supplemented with vitamin (Centrum Adult), 1 g/L ^15NH4Cl, and 5 g/L D-glucose. For constructs containing the BPTF PHD finger all growth media and buffers were supplemented with 100 μM ZnCl2. For purification of BPTF recombinants cells were lysed by sonication, and lysates were incubated with either glutathione agarose (Thermo Fisher Scientific) or Ni-NTA resin (Thermo Fisher Scientific) to respectively enrich for GST- and 6His-tagged proteins. Fusion proteins were eluted with reduced L-glutathione or imidazole as appropriate. For NMR, samples were cleaved from the GST tag using PreScission protease. All BPTF proteins were then further purified using anion exchange (Source 15Q, GE Healthcare Life Sciences) and size exclusion chromatography (SEC; Superdex 75, GE Healthcare Life Sciences). Protein concentrations were determined by UV-Vis spectroscopy.
The dCypher approach (dCypher for brevity) was developed on the chemiluminescent bead-based, no-wash Alpha platform (PerkinElmer) for the high-throughput profiling of CAP binding to PTM-defined histone peptides and semi-synthetic nucleosomes (homotypic NCPs unless stated otherwise) ([Marunde et al., 2022a]; [Morgan et al., 2021]; [Weinberg et al., 2019]; [Dilworth et al., 2022]; [Weinberg et al., 2021]; [Jain et al., 2020]; [Lloyd et al., 2020]). […]

For test [6], the system named is 21 bp double-stranded DNA. Kind of test: NMR titration (1H-15N HSQC) of 15N-H4 tail peptide with dsDNA. In kind it is binding. The conditions noted are these: 30 μM peptide; DNA ratios up to 1:3; 20 mM MOPS pH 7.2, 150 mM KCl, 25 °C. How it is done: The histone H4 tail (residues 1–25 followed by a C-terminal tyrosine for quantification) was expressed from pGEX6p as a fusion with an N-terminal GST tag followed by a PreScission protease cleavage site (Supplementary file 2A). This was overexpressed in E. coli BL21 (DE3) (NEB) grown in M9 minimal media supplemented with vitamin (Centrum daily multivitamin), 1 g/L ^15NH4Cl, and 5 g/L D-glucose. Cells were grown to OD600 ~1.0 and induced with 0.5 mM IPTG at 37 °C for 4 hr. The ^15N-GST-H4 peptide fusion was purified on glutathione agarose resin (Thermofisher Scientific), cleaved with PreScission protease (16 hr at 4 °C), and products resolved by SEC (Superdex 75 10/300; GE Healthcare Life Sciences). […] Acquisition and deconvolution software used during data collection and analysis were MassLynx and MaxEnt, respectively. ^15N-H4 (1-25) peptide concentration was determined by UV-vis spectroscopy using the non-native C-terminal tyrosine.
Oligonucleotides (5’-[…]-3’ and the complement 5’-[…]-3’) for DNA titration NMR were from Integrated DNA Technologies (IDT). […] Duplex DNA was purified on a source 15Q column (GE Healthcare Life Sciences) and analyzed by 1% agarose gel. DNA was precipitated in ethanol, resuspended in ddH2O, and concentration was determined by UV-vis and the predicted extinction coefficient (ε260=333,804.5 M^–1 cm^–1). […]

“H3K4me3tri^ac: histone H3 peptide H3K4me3K9acK14acK18ac (NMR version aa 1–34)”: the “preference over peptides containing each PTM class alone (in words)” value with BPTF PHD-BD (GST-tagged) [1] is recorded as “no preference”. Besides, the “preference over H3K4me3 or H3tetra^ac” value in the test with BPTF PHD-BD (GST-tagged) [2] is on record as more than 20 fold. Besides, the entries for the “Log EC50rel” value with BPTF PHD (6His-tagged) and with BPTF BD (6His-tagged) [3] were -7.000 M and -5.811 M, respectively. Further, the “binding” value with BPTF BD (6His-tagged) [4] (Ext. Figure 2G, 6His BD) was “no binding”; with BPTF BD (6His-tagged) [4] (Table (Ext. Figure 2B), 6His-BD) it was “no binding”; in test [5] (Figure 2B lower, PHDmut-BD W2891A) it was “no binding”; in test [5] (Table (Figure 2C), PHDmut-BD) it was “no binding”. Further, the “binding to NCPs (in words)” value in test [5] (GST-PHD^mut-BD) is “lost binding”.
For “^15N-H4 (1-25) peptide: histone H4 tail residues 1–25 followed by a C-terminal tyrosine, recombinant”, the “DNA binding by CSPs (in words)” value in test [6] is given as “the H4 tail bound DNA”.
